# Tested on: AIM2 (recombinant AIM2FL)
# Assay: EMSA
# Details: 3' biotin; EMSA: 0.1 uM biotinylated 149 bp dsDNA, protein up to 2.5 ug (twofold dilutions), 4 C, 30 min, 5% native PAGE in 45 mM Tris-borate/1 mM EDTA; pull-down: 1 ug …
substance,measurement,value
149 bp HBV dsDNA,Kd,1.38

# Reference: paper PMC10617567
